Laboratory results as given in PMC5892705.

Target: human vasopressin V2 receptor (human), P30518

cAMP production, EC50: 109 nM
Binder: UYIQNUPLG (modifications not checked) [[Se-Se]-OT-OH]
